Data on 15 molecules can be found in patent US20040086512A1 (THOMAS JEFFERSON UNIVERSITY, published 2004).

For this assay, the target named is T1, GST-Vif fusion protein (HIV-1 (HIV-1NL4-3), UniProt P12504 1-192).
T1 construct: range 1-192; Expressed from pGEX in BL21 E. coli, held on glutathione-agarose beads or coated on ELISA plates; also called purified HIV-1 Vif protein; not shown: glutathione-S-transferase encoded by the pGEX vector
Nature of the assay: phage peptide display, phage ELISA on coated GST-Vif. (In general: ELISA stands for enzyme-linked immunosorbent assay.)

T1 sequence (P12504 whole entry, the tested form may be a part): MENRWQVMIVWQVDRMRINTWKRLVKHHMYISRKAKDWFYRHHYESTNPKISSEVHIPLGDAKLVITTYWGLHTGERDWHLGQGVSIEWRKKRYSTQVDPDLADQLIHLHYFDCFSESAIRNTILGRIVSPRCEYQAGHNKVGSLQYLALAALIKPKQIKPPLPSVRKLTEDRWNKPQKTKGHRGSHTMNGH

B1: VMI1 peptide SNFASITTPRPH (peptide)
peptide: SNFASITTPRPH
notes: 12-mer with PXP motif from the Ph.D.-12 library; also called ID; NO: 5
As to B1, the binding result is given as “binds”.

B2: VMI8 peptide SEPHLPFPVLPH (peptide)
peptide: SEPHLPFPVLPH
notes: 12-mer with PXP motif from the Ph.D.-12 library; also called ID; NO: 12
B2: the binding result is reported as “binds”.

B3: VMI7 peptide SNQGGSPLPRSV (peptide)
peptide: SNQGGSPLPRSV
notes: 12-mer with PXP motif; also called VM17; ID; NO: 11
Consider B3, for which the binding result is “binds”.

B4: VMI11 peptide TMTPPPTSVRGT (peptide)
peptide: TMTPPPTSVRGT
notes: 12-mer with PXP motif from the Ph.D.-12 library; also called ID; NO: 15
For the molecule B4, the binding result is “binds”.

B5: VMI16 peptide SPYPSWSTPAGR (peptide)
peptide: SPYPSWSTPAGR
notes: 12-mer with PXP motif from the Ph.D.-12 library; also called ID; NO: 20
On to B5, for which the binding result is reported as “binds”.

B6: VMI10 peptide YPLPHPMWSMLP (peptide)
peptide: YPLPHPMWSMLP
notes: 12-mer with PXP motif from the Ph.D.-12 library; also called ID; NO: 14
On to B6, for which the binding result was “binds”.

B7: VMI2 peptide WPTNPTTVPVPS (peptide)
peptide: WPTNPTTVPVPS
notes: 12-mer with PXP motif from the Ph.D.-12 library; also called ID; NO: 6
For the molecule B7, the binding result is recorded as “binds”.

B8: VMI12 peptide TPLPTIRGDTGT (peptide)
peptide: TPLPTIRGDTGT
notes: 12-mer with PXP motif from the Ph.D.-12 library; also called ID; NO: 16
As to B8, the binding result is “binds”.

B9: VMI9 peptide LPLPAPSFHRTT (peptide)
peptide: LPLPAPSFHRTT
notes: 12-mer with PXP motif; also called ID; NO: 13
On to B9, for which the binding result is “binds”.

B10: VMI13 peptide GPPPHHRDYHGP (peptide)
peptide: GPPPHHRDYHGP
notes: 12-mer with PXP motif from the Ph.D.-12 library; also called ID; NO: 17
Turning to B10, the binding result is on record as “binds”.

B11: VMI6 peptide WHSQRLSPVPPA (peptide)
peptide: WHSQRLSPVPPA
notes: 12-mer with PXP motif from the Ph.D.-12 library; also called ID; NO: 10
For the molecule B11, the binding result was “binds”.

B12: VMI15 peptide SPYPMALFPLHN (peptide)
peptide: SPYPMALFPLHN
notes: 12-mer with PXP motif from the Ph.D.-12 library; also called ID; NO: 19
Turning to B12, the binding result is “binds”.

B13: VMI4 peptide SLHWPVSHPPPP (peptide)
peptide: SLHWPVSHPPPP
notes: 12-mer with PXP motif from the Ph.D.-12 library; also called ID; NO: 8
For the molecule B13, the binding result is given as “binds”.

B14: VMI5 peptide SVSVGMKPSPRP (peptide)
peptide: SVSVGMKPSPRP
notes: 12-mer with PXP motif; also called ID; NO: 9
Turning to B14, the binding result is listed as “binds”.

B15: VMI14 peptide YPAPIKVLLPNS (peptide)
peptide: YPAPIKVLLPNS
notes: 12-mer with PXP motif from the Ph.D.-12 library; also called ID; NO: 18
Turning to B15, the binding result is “binds”.
